What was measured:
Format in all cases: biochemical
[1] = Carboxylate reductase activity assay, pimelate semialdehyde to heptanedial; conditions: 2 mM pimelate semialdehyde, 1 mM ATP, 1 mM NADPH, enhanced by sfp gene product, room temperature, 20 min; against empty vector control (FIG. 13)
Description: The N-terminal His-tagged carboxylate reductase of SEQ ID NO 7 (see Example 4 and FIG. 7F) was assayed using pimelate semialdehyde as substrate. The enzyme activity assay was performed in triplicate in a buffer composed of a final concentration of 50 mM HEPES buffer (pH=7.5), 2 mM pimelate semialdehyde, 10 mM MgCl2, 1 mM ATP and 1 mM NADPH. The enzyme activity assay reaction was initiated by adding purified carboxylate reductase and phosphopantetheine transferase or the empty vector control to the assay buffer containing the pimelate semialdehyde and then incubated at room temperature for 20 min. The consumption of NADPH was monitored by absorbance at 340 nm.

[2] = Carboxylate reductase activity assay, pimelate to pimelate semialdehyde; conditions: 2 mM pimelate, 1 mM ATP, 1 mM NADPH, enhanced by sfp gene product, room temperature, 20 min; against empty vector control (FIG. 10)
Description: A sequence encoding a HIS-tag was added to the genes from Segniliparus rugosus and Segniliparus rotundus that encode the carboxylate reductases of SEQ ID NOs: 4 and 7, respectively (see FIGS. 7C and 7F), such that N-terminal HIS tagged carboxylate reductases could be produced. Each of the modified genes was cloned into a pET Duet expression vector along with a sfp gene encoding a HIS-tagged phosphopantetheine transferase from Bacillus subtilis, both under the T7 promoter. Each expression vector was transformed into a BL21[DE3] E. coli host and the resulting recombinant E. coli strains were cultivated at 37° C. in a 250 mL shake flask culture containing 50 mL LB media and antibiotic selection pressure, with shaking at 230 rpm. Each culture was induced overnight at 37° C. using an auto-induction media.
The pellet from each induced shake flask culture was harvested via centrifugation. Each pellet was resuspended and lysed via sonication, and the cell debris was separated from the supernatant via centrifugation. […]
Enzyme activity assays (i.e., from pimelate to pimelate semialdehyde) were performed in triplicate in a buffer composed of a final concentration of 50 mM HEPES buffer (pH=7.5), 2 mM pimelate, 10 mM MgCl, 1 mM ATP and 1 mM NADPH. […] The consumption of NADPH was monitored by absorbance at 340 nm.

[3] = Carboxylate reductase activity assay, N7-acetyl-7-aminoheptanoate to N7-acetyl-7-aminoheptanal; conditions: 2 mM N7-acetyl-7-aminoheptanoate, 1 mM ATP, 1 mM NADPH, enhanced by sfp gene product, room temperature, 20 min; against empty vector control (FIG. 12)
Description: The activity of each of the N-terminal His-tagged carboxylate reductases of SEQ ID NOs: 3, 6, and 7 (see Examples 4, and FIGS. 7B, 7E, and 7F) for converting N7-acetyl-7-aminoheptanoate to N7-acetyl-7-aminoheptanal was assayed in triplicate in a buffer composed of a final concentration of 50 mM HEPES buffer (pH=7.5), 2 mM N7-acetyl-7-aminoheptanoate, 10 mM MgCl2, 1 mM ATP, and 1 mM NADPH. The assays were initiated by adding purified carboxylate reductase and phosphopantetheine transferase or the empty vector control to the assay buffer containing the N7-acetyl-7-aminoheptanoate then incubated at room temperature for 20 min. The consumption of NADPH was monitored by absorbance at 340 nm.

substrate acceptance, consumption of NADPH by absorbance at 340 nm [2]: accepted pimelate as substrate
B1: SEQ ID NO 7: Segniliparus rotundus carboxylate reductase (Genbank Accession No. ADG98140.1) (protein, listed as Segniliparus rotundus)
chain: MTQSHTQGPQASAAHSRLARRAAELLATDPQAAATLPDPEVVRQATRPGLRLAERVDAILSGYADRPALGQRSFQTVKDPITGRSSVELLPTFDTITYRELRERATAIASDLAHHPQAPAKPGDFLASIGFISVDYVAIDIAGVFAGLTAVPLQTGATLATLTAITAETAPTLFAASIEHLPTAVDAVLATPSVRRLLVFDYRAGSDEDREAVEAAKRKIADAGSSVLVDVLDEVIARGKSAPKAPLPPATDAGDDSLSLLIYTSGSTGTPKGAMYPERNVAHFWGGVWAAAFDEDAAPPVPAINITFLPLSHVASRLSLMPTLARGGLMHFVAKSDLSTLFEDLKLARPTNLFLVPRVVEMLYQHYQSELDRRGVQDGTREAEAVKDDLRTGLLGGRILTAGFGSAPLSAELAGFIESLLQIHLVDGYGSTEAGPVWRDGYLVKPPVTDYKLIDVPELGYFSTDSPHPRGELAIKTQTILPGYYKRPETTAEVFDEDGFYLTGDVVAQIGPEQFAYVDRRKNVLKLSQGEFVTLAKLEAAYSSSPLVRQLFVYGSSERSYLLAVIVPTPDALKKFGVGEAAKAALGESLQKIARDEGLQSYEVPRDFIIETDPFTVENGLLSDARKSLRPKLKEHYGERLEAMYKELADGQANELRDIRRGVQQRPTLETVRRAAAAMLGASAAEIKPDAHFTDLGGDSLSALTFSNFLHDLFEVDVPVGVIVSAANTLGSVAEHIDAQLAGGRARPTFATVHGKGSTTIKASDLTLDKFIDEQTLEAAKHLPKPADPPRTVLLTGANGWLGRFLALEWLERLAPAGGKLITIVRGKDAAQAKARLDAAYESGDPKLAGHYQDLAATTLEVLAGDFSEPRLGLDEATWNRLADEVDFISHPGALVNHVLPYNQLFGPNVAGVAEIIKLAITTRIKPVTYLSTVAVAAGVEPSALDEDGDIRTVSAERSVDEGYANGYGNSKWGGEVLLREAHDRTGLPVRVFRSDMILAHQKYTGQVNATDQFTRLVQSLLATGLAPKSFYELDAQGNRQRAHYDGIPVDFTAESITTLGGDGLEGYRSYNVFNPHRDGVGLDEFVDWLIEAGHPITRIDDYDQWLSRFETSLRGLPESKRQASVLPLLHAFARPGPAVDGSPFRNTVFRTDVQKAKIGAEHDIPHLGKALVLKYADDIKQLGLL
substrate acceptance, consumption of NADPH by absorbance at 340 nm [1]: accepted pimelate semialdehyde as substrate
substrate acceptance, consumption of NADPH by absorbance at 340 nm [3]: accepted N7-acetyl-7-aminoheptanoate as substrate

Reference: US9738911B2, “Methods of producing 7-carbon chemicals via pyruvate and succinate semialdehyde aldol condensation” (INVISTA North America S.a r.l., priority 2012, dated 2017)
